The target of experiment [1] is CCR8 P_7-18 peptide construct (human). Put plainly: flow cytometry, peptide construct on streptavidin beads.
Experiment [2] concerns the target CCR8 P_13-24 peptide construct (human). The description is as above.
Experiment [3] has as its target T1, CCR8 P_25-35 peptide construct (human).
T1 sequence (chain, BAP biotinylated in vivo): CDAELIQTNGK
The experiment is described as above.

For experiment [4], the target named is CCR8 P_19-30 peptide construct (human). The description is as above.
Experiment [5] addresses CCR8 P_1-35 peptide construct (full-length N-terminal peptide of human CCR8) (human). Described as above.
In experiment [6] the target is CCR8 P_1-12 peptide construct (human). The experiment is described as above.
The target of experiment [7] is human CD3 (human) (UniProt P07766). Put plainly: flow cytometry on HUT-78 (CCR8+/CD3+).
For experiment [8] the target is unchanged. Put plainly: flow cytometry on HPB-all.
Experiment [9] deals with cynomolgus CD3 (cynomolgus) (UniProt Q95LI5). The experiment in a line: flow cytometry on LnPx4119.
The target of experiment [10] is cynomolgus monkey CCR8 (T4R), Mauritian origin (cynomolgus monkey). Put plainly: flow cytometry on Cy CCR8 (T4R)+ CHO.
Experiment [11] addresses cynomolgus monkey CCR8 (Chinese origin) (cynomolgus monkey). Put plainly: flow cytometry on Cy CCR8+ CHO.
In experiment [12] the target is human CCR8 (human) (UniProt P51685). The experiment in a line: flow cytometry on HUT-78 (CCR8+/CD3+).
Experiment [13] has the same target. Put plainly: flow cytometry on HUT-78 (CCR8+/CD3-).
For experiment [14] the target is unchanged. Put plainly: flow cytometry on hu CCR8+ CHO.

Data on five substances can be found in patent US20250129160A1.

Sequence of anti-CCR8 antibody clone 433H (BD 747578) (VH): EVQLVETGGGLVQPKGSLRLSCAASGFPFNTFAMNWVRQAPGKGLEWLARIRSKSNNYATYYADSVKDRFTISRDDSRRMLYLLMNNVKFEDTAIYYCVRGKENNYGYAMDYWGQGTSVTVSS
Sequence of anti-CCR8 antibody clone 433H (BD 747578) (VL): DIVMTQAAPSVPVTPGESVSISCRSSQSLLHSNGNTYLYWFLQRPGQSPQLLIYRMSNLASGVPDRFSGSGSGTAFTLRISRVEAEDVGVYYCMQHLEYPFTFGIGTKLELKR
Sequence of human CD3 (human) (P07766 23-207): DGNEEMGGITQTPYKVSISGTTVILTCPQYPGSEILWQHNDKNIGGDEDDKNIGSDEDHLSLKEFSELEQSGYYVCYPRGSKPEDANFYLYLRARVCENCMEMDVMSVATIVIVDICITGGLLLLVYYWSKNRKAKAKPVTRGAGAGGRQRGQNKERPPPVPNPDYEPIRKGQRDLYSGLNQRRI
Sequence of cynomolgus CD3 (cynomolgus) (Q95LI5 22-198): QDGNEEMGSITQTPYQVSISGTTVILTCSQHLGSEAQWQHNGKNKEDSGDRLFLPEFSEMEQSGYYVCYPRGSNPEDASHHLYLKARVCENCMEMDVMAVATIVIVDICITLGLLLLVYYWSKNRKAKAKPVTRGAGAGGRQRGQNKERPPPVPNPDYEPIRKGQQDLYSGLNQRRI
Sequence of cynomolgus monkey CCR8 (Chinese origin) (cynomolgus monkey) (O97665 other isoform, or with tags, fused parts or gaps): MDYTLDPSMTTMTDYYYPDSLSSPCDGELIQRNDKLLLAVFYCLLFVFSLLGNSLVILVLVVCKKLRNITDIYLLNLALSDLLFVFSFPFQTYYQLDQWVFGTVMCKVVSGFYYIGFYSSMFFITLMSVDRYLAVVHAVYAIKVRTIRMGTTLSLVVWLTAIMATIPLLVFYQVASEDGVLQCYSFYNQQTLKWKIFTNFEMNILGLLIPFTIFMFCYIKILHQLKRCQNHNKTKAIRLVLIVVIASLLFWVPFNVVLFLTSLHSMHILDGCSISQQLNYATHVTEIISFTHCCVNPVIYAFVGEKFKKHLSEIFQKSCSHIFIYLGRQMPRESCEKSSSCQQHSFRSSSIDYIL
Sequence of cynomolgus monkey CCR8 (T4R), Mauritian origin (cynomolgus monkey) (O97665 other isoform, or with tags, fused parts or gaps): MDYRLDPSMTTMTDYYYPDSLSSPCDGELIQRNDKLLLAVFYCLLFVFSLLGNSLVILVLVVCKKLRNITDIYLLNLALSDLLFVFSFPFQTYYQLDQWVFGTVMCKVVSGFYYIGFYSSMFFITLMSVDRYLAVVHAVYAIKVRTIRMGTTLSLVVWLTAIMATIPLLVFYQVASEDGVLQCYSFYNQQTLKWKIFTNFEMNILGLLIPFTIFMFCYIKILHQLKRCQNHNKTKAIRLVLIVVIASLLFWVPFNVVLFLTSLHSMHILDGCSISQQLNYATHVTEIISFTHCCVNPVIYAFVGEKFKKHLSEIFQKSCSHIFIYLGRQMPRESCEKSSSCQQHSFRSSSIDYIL

On to “anti-V5 antibody (clone SV5-Pk1; AbD Serotec, MCA 1360)”, for which the Median Fluorescence of Sample/Median Fluorescence of Negative Control in [1] amounted to 1090; in [2], 1300; in [3] it was 1090; in experiment [4] it was 1020; in experiment [5], 953; in experiment [6] it was 1090.

On to “control TCE molecule (CD3-based TCE molecule recognizing an irrelevant target antigen) (bispecific antibody)”, for which the mean BL2 of the sample/mean BL2 of the secondary antibody control with human CD3 (human) [7] turned out to be 72; with human CD3 (human) [8] it was 398; in experiment [9], 75.

Consider “anti-CCR8 antibody clone 433H (BD 747578)”, for which the mean BL2 of the sample/mean BL2 of the secondary antibody control in [10] came to 106; in experiment [11], 136. The Median Fluorescence of Sample/Median Fluorescence of Negative Control in [1] was found to be 0.9; in [2], 300; in experiment [3], 0.9; in [4], 0.9; in [5], 290; in [6], 0.9.

Regarding “anti-FLAG antibody (clone M2, Sigma F3165/F1804)”, the Median Fluorescence of Sample/Median Fluorescence of Negative Control turned out to be 589 in experiment [1]; 628 in experiment [2]; 582 in experiment [3]; 590 in experiment [4]; 522 in [5]; 596 in [6].

As to “anti-CCR8 antibody clone L263G8 (BioLegend, 360602)”, the values for the mean BL2 of the sample/mean BL2 of the secondary antibody control with human CCR8 (human) [12], with human CCR8 (human) [13] and in the experiment with human CCR8 (human) [14] were 9, 6 and 40, respectively. The Median Fluorescence of Sample/Median Fluorescence of Negative Control stood at 0.9 in experiment [1]; 285 in experiment [2]; 0.9 in experiment [3]; 0.9 in experiment [4]; 751 in [5]; 0.9 in experiment [6].
